Results from publication PMC4172472.

Target: vitronectin (UniProt P04004)
Chain of UniProt P04004 (P04004 20-478): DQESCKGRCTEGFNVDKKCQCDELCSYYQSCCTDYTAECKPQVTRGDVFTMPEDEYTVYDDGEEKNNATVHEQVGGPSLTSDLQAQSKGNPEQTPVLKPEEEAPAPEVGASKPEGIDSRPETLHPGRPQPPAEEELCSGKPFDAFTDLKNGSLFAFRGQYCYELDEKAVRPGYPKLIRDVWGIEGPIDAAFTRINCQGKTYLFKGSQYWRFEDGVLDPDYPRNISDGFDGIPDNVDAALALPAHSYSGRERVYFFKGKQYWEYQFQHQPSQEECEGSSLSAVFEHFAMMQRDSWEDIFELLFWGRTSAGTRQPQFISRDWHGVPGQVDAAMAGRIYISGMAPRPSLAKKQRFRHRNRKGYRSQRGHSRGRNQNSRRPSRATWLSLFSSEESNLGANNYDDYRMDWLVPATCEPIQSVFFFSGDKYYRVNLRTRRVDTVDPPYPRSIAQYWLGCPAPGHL

αvβ3 integrin (from UniProt P06756 31-1048; P05106 27-788) (receptor)
detachment of adherent WM266 cells from vitronectin-coated plates by the anti-αvβ3 antibody LM609 (10 µg/mL), 2 h: 50%
